Measured values from US20100048671.

Target: T7-tagged tyrosine kinase Etk (UniProt P51813)
Sequence (P51813 whole entry): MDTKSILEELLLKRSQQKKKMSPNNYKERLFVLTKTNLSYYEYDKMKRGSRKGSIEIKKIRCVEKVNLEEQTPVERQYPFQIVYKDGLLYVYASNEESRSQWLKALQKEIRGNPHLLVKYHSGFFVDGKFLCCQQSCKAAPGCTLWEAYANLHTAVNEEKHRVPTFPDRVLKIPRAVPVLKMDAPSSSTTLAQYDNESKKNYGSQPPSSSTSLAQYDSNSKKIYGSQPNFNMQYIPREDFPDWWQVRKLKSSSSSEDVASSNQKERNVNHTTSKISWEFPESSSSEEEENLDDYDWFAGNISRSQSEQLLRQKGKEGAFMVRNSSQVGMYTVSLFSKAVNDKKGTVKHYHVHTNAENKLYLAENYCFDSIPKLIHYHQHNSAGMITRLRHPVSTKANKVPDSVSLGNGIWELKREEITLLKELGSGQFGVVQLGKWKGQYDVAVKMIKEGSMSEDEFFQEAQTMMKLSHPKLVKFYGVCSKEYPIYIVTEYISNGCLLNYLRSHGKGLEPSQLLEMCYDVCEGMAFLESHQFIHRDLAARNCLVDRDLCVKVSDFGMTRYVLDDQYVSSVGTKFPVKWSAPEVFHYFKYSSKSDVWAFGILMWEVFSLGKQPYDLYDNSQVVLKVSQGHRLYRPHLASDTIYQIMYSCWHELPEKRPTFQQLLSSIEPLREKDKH

Chain of Flag-tagged human 44 kD Pim-1 (Pim-1L) (chain, as listed by the source): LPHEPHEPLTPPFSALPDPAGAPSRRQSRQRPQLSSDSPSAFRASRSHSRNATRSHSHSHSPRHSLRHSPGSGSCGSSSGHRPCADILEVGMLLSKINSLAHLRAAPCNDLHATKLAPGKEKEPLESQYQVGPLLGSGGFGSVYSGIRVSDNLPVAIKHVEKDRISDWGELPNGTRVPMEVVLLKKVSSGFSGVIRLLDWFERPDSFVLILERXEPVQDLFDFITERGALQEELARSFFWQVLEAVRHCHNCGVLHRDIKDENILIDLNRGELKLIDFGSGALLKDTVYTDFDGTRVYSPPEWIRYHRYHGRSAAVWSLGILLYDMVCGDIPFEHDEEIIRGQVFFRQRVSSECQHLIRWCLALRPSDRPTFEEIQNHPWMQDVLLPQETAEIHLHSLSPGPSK
Chain of Flag-tagged Pim-1LΔP (Pim-1L with the first 15 amino acids deleted) (chain, as listed by the source mutant): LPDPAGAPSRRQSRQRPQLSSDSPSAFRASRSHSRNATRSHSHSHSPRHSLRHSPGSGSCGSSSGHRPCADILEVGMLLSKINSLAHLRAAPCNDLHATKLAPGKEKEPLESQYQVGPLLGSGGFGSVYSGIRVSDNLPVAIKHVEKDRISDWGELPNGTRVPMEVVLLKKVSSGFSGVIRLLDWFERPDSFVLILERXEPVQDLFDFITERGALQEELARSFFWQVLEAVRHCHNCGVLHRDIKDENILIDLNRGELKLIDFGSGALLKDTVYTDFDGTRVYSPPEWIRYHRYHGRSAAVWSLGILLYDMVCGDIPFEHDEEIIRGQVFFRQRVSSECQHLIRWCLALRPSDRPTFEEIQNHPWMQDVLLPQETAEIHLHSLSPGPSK

Substance	in vitro kinase assay of Etk (tyrosine phosphorylation of the substrate Gab1)	tyrosine phosphorylation of Etk (IP anti-Etk, blot anti-phosphotyrosine)
Flag-tagged human 44 kD Pim-1 (Pim-1L)	Co-expression of Etk with Pim-1L enhanced the kinase activity of Etk	unexpected robust increase of tyrosine phosphorylation of Etk
Flag-tagged Pim-1LΔP (Pim-1L with the first 15 amino acids deleted)	Deletion of the proline-rich PXXP motifs of Pim-1L (Pim-1LΔP) dramatically diminished its effects on the Etk kinase activity	
